From the supplement of paper PMC7877785
± gives the uncertainty stated by the source.

Test: self-splicing fitness, log relative to wild type (ln ratio); higher = more splicing; Tetrahymena group I intron in knt gene, E. coli kanamycin selection, DiMSum; sequences stand for … in CUCUCU…GGAGGGAAAAGUUAUCAGGCAUGCACCUGGUAGCUAGUCUUUAAACCAAUAGAUUGCAUCGGUUUAAAAGGCAAGACCGUCAAAUUGCGGGAAAGGGGUCAACAGCCGUUCAGUACCAAGUCUCAGGGGAAACUUUGAGAUGGCCUUGCAAAGGGUAUGGUAAUAAGCUGACGGACAUGGUCCUAACCACGCAGCCAAGUCCUAAGUCAACAGAUCUUCUGUUGAUAUGGAUGCAGUUCACAGACUAAAUGUCGGUCGGGGAAGAUGUAUUCUUCUCAUAAGAUAUAGUCGGACCUCUCCUUAAUGGGAGCUAGCGGAUGAAGUGAUGCAACACUGGAGCCGCUGGGAACUAAUUUGUAUGCGAAAGUAUAUUGAUUAGUUUUGGAGUACUCGUGGUCG
Outline: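 Fitness was computed with DiMSum as the error-weighted combination of replicate fold changes, kanamycin versus none, each normalised to wild type. The library randomised all eight intron nucleotides of the P1ex region, with the intron placed in the knt kanamycin-resistance gene on pET-22b(+) in E. coli BL21(DE3). Six replicate transformations were grown overnight at 37°C or 30°C on LB agar with or without 25 μg/mL kanamycin, plus 100 μg/mL carbenicillin, 50 μM IPTG and 0.2% rhamnose. Pooled colonies were amplicon-sequenced on an Illumina HiSeq 2500.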

Sequence	self-splicing fitness (ln) (30 °C)	self-splicing fitness (ln) (37 °C)
CCAAAGCAAUAUUACGGAUA	-2.87 ± 0.22	-2.17 ± 0.31
AGGGAGCAAUAUUACGUCCA	-1.11 ± 0.27	-0.389 ± 0.33
CUAUAGCAAUAUUACGUUAC	-3.45 ± 0.25	-2.14 ± 0.33
CAUGAGCAAUAUUACGAAGA	–	-2.3 ± 0.26
GUCCAGCAAUAUUACGCUAC	-4.03 ± 0.16	-2.96 ± 0.14
ACCGAGCAAUAUUACGCAUU	-3.91 ± 0.17	-1.78 ± 0.12
GUGCAGCAAUAUUACGGUCU	-0.887 ± 0.081	0.217 ± 0.093
CAUGAGCAAUAUUACGCUCA	-3.35 ± 0.17	-2.18 ± 0.18
UCGAAGCAAUAUUACGGUUC	-4.34 ± 0.34	-2.79 ± 0.32
GGGAAGCAAUAUUACGCAAC	-3.36 ± 0.17	-1.03 ± 0.18
UAUUAGCAAUAUUACGUGGG	-4.06 ± 0.27	-2.44 ± 0.17
AGGCAGCAAUAUUACGUCUA	-0.469 ± 0.081	0.262 ± 0.091
AGAGAGCAAUAUUACGCAUU	-3.41 ± 0.18	-2.35 ± 0.15
CGGGAGCAAUAUUACGUACU	–	-1.86 ± 0.38
GGCCAGCAAUAUUACGGAGG	-2.39 ± 0.11	-1.14 ± 0.14
CGUGAGCAAUAUUACGCUUA	–	-2.18 ± 0.35
ACACAGCAAUAUUACGCAUC	-3.23 ± 0.21	-0.58 ± 0.094
UUGAAGCAAUAUUACGACAU	0.0991 ± 0.013	0.28 ± 0.033
CACAAGCAAUAUUACGAUCG	-0.581 ± 0.069	0.875 ± 0.091

Sequence	self-splicing fitness (ln) (30 °C)	self-splicing fitness (ln) (37 °C)
GACAAGCAAUAUUACGGCGU	-0.596 ± 0.063	-0.154 ± 0.08
UAGCAGCAAUAUUACGCUUA	-0.452 ± 0.084	-0.689 ± 0.087
UUAGAGCAAUAUUACGUGAA	-2.16 ± 0.12	-0.588 ± 0.13
CCAAAGCAAUAUUACGGGAA	-3.01 ± 0.18	-3.66 ± 0.3
GCCGAGCAAUAUUACGCGGA	-1.04 ± 0.17	0.224 ± 0.14
GAGGAGCAAUAUUACGUGGG	-3.08 ± 0.36	-1.91 ± 0.4
ACGGAGCAAUAUUACGAGUU	-3.23 ± 0.22	-2.54 ± 0.33
UCAAAGCAAUAUUACGACGA	-0.51 ± 0.074	0.278 ± 0.095
AUAAAGCAAUAUUACGACGU	0.742 ± 0.063	0.786 ± 0.074
GAGUAGCAAUAUUACGCGGU	-3.68 ± 0.31	-2.78 ± 0.48
CGCUAGCAAUAUUACGCUGU	–	-2.3 ± 0.19
GUUUAGCAAUAUUACGCCUA	-0.696 ± 0.28	-0.827 ± 0.4
AGCCAGCAAUAUUACGCAGA	-3.39 ± 0.18	-2.94 ± 0.18
ACGUAGCAAUAUUACGGCCA	0.73 ± 0.19	0.143 ± 0.18
AUAAAGCAAUAUUACGUAAG	-2.08 ± 0.1	-0.84 ± 0.11
GUUGAGCAAUAUUACGGUAU	-4.2 ± 0.23	-1.71 ± 0.13
CAACAGCAAUAUUACGAAGG	-0.969 ± 0.059	-0.0092 ± 0.078
GGUCAGCAAUAUUACGUAUA	-1.7 ± 0.18	-0.369 ± 0.18
UUGCAGCAAUAUUACGAAGG	-3.92 ± 0.28	-1.53 ± 0.2
